The text below walks through data of patent US20210128704A1 (UNIVERSITY OF MIAMI, published 2021).

The target of the assay is T1, ITPR1 (inositol 1,4,5-trisphosphate receptor type 1) (UniProt Q14643 1-2758, limits assumed).
T1 construct: Endogenous protein of the transfected cells, tested by co-immunoprecipitation and western blot
As to the kind of experiment: co-immunoprecipitation with antibodies to the tag and western blot, HEK293 cells before and after forskolin. The text has this: Overexpression of V5-Car10 and V5-CA10 inhibits ATP-induced free calcium release in vitro: ITPR1 contains functionally distinct domains, including the ‘modulatory’ domain responding to intracellular modulators such as calcium, calmodulin, ATP, and carbonic anhydrase-8 (Car8). ATP increases ITPR1-dependent calcium release by increasing the open probability of the channel in the presence of activating concentrations of IP3 and calcium. It is believed that Car8-mediated inhibition of ITPR1 activation and ATP-mediated calcium release requires binding to this modulatory domain. […] Co-immunoprecipitation of each protein with antibodies to V5 tag with ITPR1 and pITPR1 before and after forskolin stimulation of HEK293 cells was conducted.
In general terms: A western blot detects proteins with antibodies after separation by electrophoresis.

T1 sequence (Q14643 whole entry): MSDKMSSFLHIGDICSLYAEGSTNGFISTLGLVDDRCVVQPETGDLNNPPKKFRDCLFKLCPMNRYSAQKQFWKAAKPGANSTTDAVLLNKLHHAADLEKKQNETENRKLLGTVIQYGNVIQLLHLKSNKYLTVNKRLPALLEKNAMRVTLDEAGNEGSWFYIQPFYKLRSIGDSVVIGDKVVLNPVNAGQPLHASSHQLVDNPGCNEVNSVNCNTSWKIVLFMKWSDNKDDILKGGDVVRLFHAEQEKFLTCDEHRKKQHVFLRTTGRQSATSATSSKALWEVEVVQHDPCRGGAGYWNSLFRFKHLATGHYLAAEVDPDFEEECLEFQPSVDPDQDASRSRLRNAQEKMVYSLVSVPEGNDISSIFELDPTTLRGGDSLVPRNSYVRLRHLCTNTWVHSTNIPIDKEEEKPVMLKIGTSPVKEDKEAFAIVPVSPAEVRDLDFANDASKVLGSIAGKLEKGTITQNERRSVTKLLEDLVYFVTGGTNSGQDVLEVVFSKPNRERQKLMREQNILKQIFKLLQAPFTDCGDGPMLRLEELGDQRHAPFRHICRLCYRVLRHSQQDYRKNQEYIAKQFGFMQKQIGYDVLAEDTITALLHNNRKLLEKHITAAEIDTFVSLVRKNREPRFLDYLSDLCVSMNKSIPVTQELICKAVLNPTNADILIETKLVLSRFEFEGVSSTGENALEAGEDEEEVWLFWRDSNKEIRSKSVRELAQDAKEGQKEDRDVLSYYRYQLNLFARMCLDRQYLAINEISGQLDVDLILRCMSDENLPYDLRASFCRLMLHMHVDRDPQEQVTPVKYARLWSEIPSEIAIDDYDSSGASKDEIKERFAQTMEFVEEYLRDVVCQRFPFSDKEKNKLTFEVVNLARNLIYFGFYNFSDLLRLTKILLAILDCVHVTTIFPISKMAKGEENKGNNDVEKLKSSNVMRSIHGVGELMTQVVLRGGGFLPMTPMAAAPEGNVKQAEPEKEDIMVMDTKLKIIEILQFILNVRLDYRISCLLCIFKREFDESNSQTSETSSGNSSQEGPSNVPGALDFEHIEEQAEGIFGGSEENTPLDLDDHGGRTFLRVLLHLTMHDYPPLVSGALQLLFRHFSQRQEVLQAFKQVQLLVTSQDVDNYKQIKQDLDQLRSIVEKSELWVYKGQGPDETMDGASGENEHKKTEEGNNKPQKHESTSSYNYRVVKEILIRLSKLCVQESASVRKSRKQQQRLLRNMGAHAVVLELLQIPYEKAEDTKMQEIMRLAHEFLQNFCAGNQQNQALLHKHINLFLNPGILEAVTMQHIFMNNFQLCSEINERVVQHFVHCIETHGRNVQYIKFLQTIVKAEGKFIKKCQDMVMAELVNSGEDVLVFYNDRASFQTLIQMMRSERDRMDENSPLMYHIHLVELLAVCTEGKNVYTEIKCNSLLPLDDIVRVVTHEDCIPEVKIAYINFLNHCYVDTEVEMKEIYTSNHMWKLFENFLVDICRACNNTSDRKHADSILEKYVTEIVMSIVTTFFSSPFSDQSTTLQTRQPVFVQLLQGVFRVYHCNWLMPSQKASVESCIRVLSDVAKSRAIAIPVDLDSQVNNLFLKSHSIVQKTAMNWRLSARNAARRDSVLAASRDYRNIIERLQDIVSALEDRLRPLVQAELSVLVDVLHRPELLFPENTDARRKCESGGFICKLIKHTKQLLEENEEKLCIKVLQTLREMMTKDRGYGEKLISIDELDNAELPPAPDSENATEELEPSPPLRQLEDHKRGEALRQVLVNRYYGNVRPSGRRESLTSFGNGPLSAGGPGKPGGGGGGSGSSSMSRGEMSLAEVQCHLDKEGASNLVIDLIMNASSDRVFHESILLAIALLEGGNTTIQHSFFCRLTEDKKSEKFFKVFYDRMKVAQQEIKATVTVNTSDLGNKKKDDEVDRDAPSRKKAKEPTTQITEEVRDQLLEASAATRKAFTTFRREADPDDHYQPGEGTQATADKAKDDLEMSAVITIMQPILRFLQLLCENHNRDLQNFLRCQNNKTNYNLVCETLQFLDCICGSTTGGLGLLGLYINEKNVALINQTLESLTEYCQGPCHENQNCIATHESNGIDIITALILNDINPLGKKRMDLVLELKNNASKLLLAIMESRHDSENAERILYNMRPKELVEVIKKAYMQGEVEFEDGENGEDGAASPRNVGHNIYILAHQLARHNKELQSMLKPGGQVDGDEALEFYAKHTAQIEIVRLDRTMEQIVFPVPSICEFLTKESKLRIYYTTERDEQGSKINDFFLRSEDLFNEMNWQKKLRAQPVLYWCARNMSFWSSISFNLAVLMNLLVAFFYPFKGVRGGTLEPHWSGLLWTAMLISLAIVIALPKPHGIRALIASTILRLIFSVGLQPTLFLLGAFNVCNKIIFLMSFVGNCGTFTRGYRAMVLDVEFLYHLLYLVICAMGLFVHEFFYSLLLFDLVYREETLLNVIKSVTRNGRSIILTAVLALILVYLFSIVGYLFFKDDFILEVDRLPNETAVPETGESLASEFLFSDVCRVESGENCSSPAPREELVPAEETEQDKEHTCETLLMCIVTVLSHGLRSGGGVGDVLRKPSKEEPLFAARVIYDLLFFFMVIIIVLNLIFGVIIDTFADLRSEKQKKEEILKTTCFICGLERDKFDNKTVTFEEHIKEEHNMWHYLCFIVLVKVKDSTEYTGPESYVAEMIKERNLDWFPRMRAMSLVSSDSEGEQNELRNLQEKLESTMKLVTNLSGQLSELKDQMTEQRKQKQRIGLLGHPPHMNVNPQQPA

B1: CA8-204 (carbonic anhydrase 8 fragment, alternative transcript product) (other, not shown: small tags and cut ends)
chain: MADLSFIEDTVAFPEKEEDEEEEEEGVEWGYEEGVEWGLVFPDANGEYQSPINLNSREARYDPSLLDVRLSPNYVVCRDCEVTNDGHTIQVILKSKSVLSGGPLPQGHEFELYEVRFHWGRENQRGSEHTVNFKAFPMEVRITNHLVKILFSE
notes: Expressed in HEK293 cells; also called CA8 fragment
As to B1, the binding result is recorded as “no binding”.
